# Source: doi:10.1101/2025.11.04.686334
# pKd: −log10 of the molar value.
# Target: FluA-20 mAb
# Test: BLI
# HA220-2, sequence (Q9NZ52 16-146): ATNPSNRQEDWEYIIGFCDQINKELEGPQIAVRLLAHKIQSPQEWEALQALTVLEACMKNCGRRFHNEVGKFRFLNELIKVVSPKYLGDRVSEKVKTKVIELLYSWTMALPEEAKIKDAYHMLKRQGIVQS
# FluA-20 mAb, sequence (heavy, as listed by the source, chain 1 of 2): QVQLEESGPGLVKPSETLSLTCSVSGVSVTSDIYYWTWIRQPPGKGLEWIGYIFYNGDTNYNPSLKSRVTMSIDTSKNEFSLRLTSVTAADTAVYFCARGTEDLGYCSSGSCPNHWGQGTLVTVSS
# FluA-20 mAb, sequence (light, as listed by the source, chain 2 of 2): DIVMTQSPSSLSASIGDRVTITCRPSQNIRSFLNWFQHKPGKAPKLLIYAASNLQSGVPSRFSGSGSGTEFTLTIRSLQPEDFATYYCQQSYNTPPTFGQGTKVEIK
substance,measurement,value
HA220-2 (from UniProt Q9NZ52 16-146),pKd,6.01
